Paper PMC6908751 (Cell host & microbe, 2019)

B1: human anti-N9 antibody NA-73 Fab (Fab, V domains shown)
VH: QVQLEESGPGLVKPSETLSLTCTVSGYTISSGYYWGWIRQPPGKGLEWIGCNNHRGSSYYNPSLKSRVIISVDTTKNKFSLKLSSVTAADTAVYYCARDPSFWSSTSRTSPYYYGMDVWGQGTLVTVSS
VL: not shown
B2: human anti-N9 antibody NA-63 Fab (Fab, V domains shown)
VH: EVQLVESGGGLVQPGGSLRLSCAASGFTFSSYWMSWVRQAPGKGLDWVANIKQDGSEKYYVDSVKGRFTISRHNAKNSLYLQMNSLRAEDTAVYYCASSTAAEFFDYWGQGTLVTVSS
VL: DIVMTQSPSSLSASVGDRVTITCRASQSISTYLNWYQQKPGKAPKLLIYAASSLQGGVPSRFSGSGSGTDFTLTISSLQPEDFATYYCQQSYSTPLYTFGQGTKLEIK
B3: human anti-N9 antibody NA-22 Fab (Fab, V domains shown)
VH: QVQLVESGGGVVQPGRSLRLSCAASGFTFNNYGMHWVRQAPGKGLEWVAVISYDGSNKYYADSVKGRFTISRDNSKNTLYLQMNSLRAEDTAVYYCAKDKRFITMILVGPFDYWGQGTLVTVSS
VL: QSVLTQPASVSGSPGQSITISCTGTSSDVGGYNYVSWHQQHPGKAPKLMIYDVSNRPSGVSNRFSGSKSGNTASLTISGLQTEDEADYYCSSYTSSTTNVFGTGTKVTVL
B4: human anti-N9 antibody NA-80 Fab (Fab, V domains shown)
VH: QVQLVQSGAEVKRPGASVKVSCKASGYTFISYGISWVRQAPGQGLEWMGWISAYNGNTNYAQNLQGRVTMTTDTSTSTAYMELRSLRSDDTAVYYCARVIPGTAVDYFDYWGQGTLVTVSS
VL: DIVMTQSPSSLSASVGDRVTISCRASQSISSYLNWYQQKPGKAPKLLIYAASSLQSGVPSRFSGSASGTDFTLTISSLQPEDFATYYCQQSYSAPFTFGPGTKVDIE

Biological target: Sh2 N9 NA ectodomain plus stalk with His6-tag (tetramer) (influenza A virus A/Shanghai/02/2013 …)
Experiment: cryo-EM structure

Binder | stoichiometry N | binding result
B1 | 1 Fab per NA protomer | 
B2 |  | binds
B3 | 4 Fabs per NA tetramer | 
B4 | 1 Fab per NA protomer | 
